Measured values reported in US20240287489A1, “CHITINOLYTIC ENZYME-BASED PLANT PROTECTION AGENTS” (GLOBACHEM NV, priority 2021, published 2024).

Legend:
[1] = Chitinase mixture design, conversion rate of chitin powder (reducing end assay); type: biochemical; conditions: 2 μM Factor A
Protocol: All five chitinases implemented in the DoE originated from a novel marine Photobacterium strain expressing these enzymes to carry out a conversion of crystalline chitin to monomeric and dimeric polysaccharides. All chitinases were produced recombinantly using E. coli BL21 (DE3) and characterized regarding optimum reaction conditions and product properties in Example 2. As so far only singular enzyme reactions were carried out, the DoE approach was used to 1) determine ideal enzyme combinations to maximize product rates 2) identify possible enzyme combinations to alter product distribution in terms of DP. […] The amount of released reducing sugars from the enzymatic degradation was quantified by the reducing end assay and used as a primary response.
The optimization function in Design Expert was used to model enzyme mixtures to maximize the overall conversion rate of chitin to oligomeric chitin mixtures. Three mixture solutions for maximized chitin (S1-83 Max) oligomer rates were tested and quantitative data was compared to the values predicted by the model. […]
Enzymatic activity of recombinant chitinases was determined by carrying out a reducing end assay [J., H., Svein, E., and H., V. G., Carbohydr Polym, 2004. […] Samples were cooled down to room temperature and absorption was determined at 620 nm. […]

[2] = system: corn (maize), rice, barley; experiment: Protection of plants against abiotic stress (drought, flooding, salt, frost); type: in vivo, pear, cherry; conditions: foliar and/or seed application
Description: FIGS. 18A-18E. Use of chitinase 1 as plant protection agent against abiotic stresses. Plant length (PL) FIG. 18A: after foliar application on corn in presence of drought or flooding stress; FIG. 18B: after foliar, seed or foliar+seed application on corn in presence of drought stress; FIG. 18C: after foliar application on rice in presence of salt stress; FIG. 18D: after foliar application on corn in presence of salt stress; FIG. 18E: after seed application on barley in presence of drought stress.
FIGS. 19A-19B. Use of chitinase 1 as plant protection agent against abiotic stresses. Yield FIG. 19A: of pears after foliar application in presence of frost stress; FIG. 19B: of cherries after foliar application in presence of frost stress.
Chitinase 1 was tested for protective effects against abiotic stress. Abiotic stresses tested were drought, flooding, salt, or frost stress. Plants tested were: corn (maize), rice, barley, pear and […]. Test conditions were as follows:
• plants are drilled in trays • germination at 25° C./15° C. (day/night) light 16 h, dark 8 h • application 10 days later • 2 days later replanted in pots of 8×8 cm • 3 possible regimes • no water • every day water with flooding system • continuous water
• plants are drilled in trays • germination at 25° C./15° C. […]

B1: Chitinase 1: chitinolytic enzyme from P. orarium, SEQ ID NO: 1, recombinant with PelB signal peptide and 6×His tag; run 19 = 2 μM alone (protein, listed as Photobacterium orarium)
chain: MAAPGTPQIAWMETDYAIVEVDQAASAYKSLITVKPAAEVPVAWQRYSGETADLWKVKLNGNVVFEQSIAPASSGAGSTTLSVAQGGQYAMTVELCSGTGAAQACTSSAATNIVVADTDGSHLDPLPMNVDANNGNYTTPANTVVGAYFVEWGVYGRKFSVDNIPAQNLTHILYGFIPICGPNESLGEIENGNSLAALNRACQGTPDYEVVIHDPWAAVQMPQPQSGHTHSTPYKGTYGQMMALKQRYPDLKIVPSVGGWTLSDPFYSFTDKAKRDIFVASVKKFLKTWKFFDGVDIDWEFPGGKGANANLGDPVNDGPAYVALMRELRVMLDELEAETGRQYELTSAIGVGYDKIDVVNYADAVQYMDYIFAMTYDFFGGWNNVPGHQTALFCGSHMSADVCNGTGVDENGVPRQGPAYTAAHGIDRLLAQGVPANKLVLGTAMYARGWTGVTEASMTDPTNPMTGTGNGMVPGSWEPGVIDYKDVVTDYINNAAVTKGYDAQAEAPWAYNPSNGNLITYDDRRSVLAKGQYVRNLGLAGLFAWEIDADNGDILNAMQDSLAGGGGNYAPVAKAGADQVVNGAASVTLDGSASSDRDGQIVSYQWTQTSGPALTLTGSDTATATVAVPEVTADTQYAFTLTVTDNAGDTATDSVTVTAKAPGSNTAPVVAVSGPATASAGDTVVLDASQSSDADGDTLTFTWTVPAGVNATVNGATVSFVADSYTVDTPLNFTVAVSDGTDSVTESVTVTVLKDGGSTGCTNAWATGGVYNSGDIVTHSGKSWKAKWWTTGEEPGTTGEWGVWEDLGAANCQIE
modifications: PelB signal peptide; 6xHis tag; Chitinase 1
notes: run 19 = 2 μM alone
[1]
  conversion rate (highest of the design runs): 502 nmol/mL/h
[2]
  protection from abiotic stress (plant length, fruit yield): protects the plants from different abiotic stresses
